{"source": "patent US20240190983A1", "about": "(JULIUS MAXIMILIANS UNIVERSIT T W RZBURG, published 2024)", "binders": {"B1": {"name": "C4-Fab1 (Fab)", "light": "MNFGFSLIFLVLVLKGVQCEVKLVPRQLDYKDDDDKELDIVMTQSHKFMSTSVGDRVSITCKASQDVDTAVAWYQQKPGQSPKLLIYWASTRHTGVPDRFTGSGSGTDYTLTISSVQAEDLARYYCQQYYSVPPTFGGGTKLGSEIKRTVAAPSVFIFPPSDEQLKSGTASVVCLLNNFYPREAKVQWKVDNALQSGNSQESVTEQDSKDSTYSLSSTLTLSKADYEKHKVYACEVTHQGLSSPVTKSFNRGEC", "heavy": "MNFGFSLIFLVLVLKGVQCEVKLVPRQLDYKDDDDKELQVQLLQSGPELVKPGASVKLSCKASGYSFTSYDINWVKQRPGQGLEWVGWIYPRDGDTKYNEKFKGKAILTVDTSSNTAYMNLHSLTSEDSAVYFCARLTGPYWYFDVWGTGTTVTVSSGSSSASTKGPSVFPLAPSSKSTSGGTAALGCLVKDYFPEPVTVSWNSGALTSGVHTFPAVLQSSGLYSLSSVVTVPSSSLGTQTYICNVNHKPSNTKVDKKVEPKSCDKTHT"}, "B2": {"name": "C4-IgG1(N297A)-HC:TNC (antibody)", "light": "MNFGFSLIFLVLVLKGVQCEVKLVPRQLDYKDDDDKELDIVMTQSHKFMSTSVGDRVSITCKASQDVDTAVAWYQQKPGQSPKLLIYWASTRHTGVPDRFTGSGSGTDYTLTISSVQAEDLARYYCQQYYSVPPTFGGGTKLGSEIKRTVAAPSVFIFPPSDEQLKSGTASVVCLLNNFYPREAKVQWKVDNALQSGNSQESVTEQDSKDSTYSLSSTLTLSKADYEKHKVYACEVTHQGLSSPVTKSFNRGEC", "heavy": "not shown"}, "B3": {"name": "C4-Fab1-LC:scFvC4 (antibody)", "light": "MNFGFSLIFLVLVLKGVQCEVKLVPRQLDYKDDDDKELDIVMTQSHKFMSTSVGDRVSITCKASQDVDTAVAWYQQKPGQSPKLLIYWASTRHTGVPDRFTGSGSGTDYTLTISSVQAEDLARYYCQQYYSVPPTFGGGTKLGSEIKRTVAAPSVFIFPPSDEQLKSGTASVVCLLNNFYPREAKVQWKVDNALQSGNSQESVTEQDSKDSTYSLSSTLTLSKADYEKHKVYACEVTHQGLSSPVTKSFNRGECLEQVQLLQSGPELVKPGASVKLSCKASGYSFTSYDINWVKQRPGQGLEWVGWIYPRDGDTKYNEKFKGKAILTVDTSSNTAYMNLHSLTSEDSAVYFCARLTGPYWYFDVWGTGTTVTVSSRSSTKGPKLEEGEFSEAQLDIVMTQSHKFMSTSVGDRVSITCKASQDVDTAVAWYQQKPGQSPKLLIYWASTRHTGVPDRFTGSGSGTDYTLTISSVQAEDLARYYCQQYYSVPPTFGGGTKLEIK", "heavy": "MNFGFSLIFLVLVLKGVQCEVKLVPRQLDYKDDDDKELQVQLLQSGPELVKPGASVKLSCKASGYSFTSYDINWVKQRPGQGLEWVGWIYPRDGDTKYNEKFKGKAILTVDTSSNTAYMNLHSLTSEDSAVYFCARLTGPYWYFDVWGTGTTVTVSSGSSSASTKGPSVFPLAPSSKSTSGGTAALGCLVKDYFPEPVTVSWNSGALTSGVHTFPAVLQSSGLYSLSSVVTVPSSSLGTQTYICNVNHKPSNTKVDKKVEPKSCDKTHT"}, "B4": {"name": "C4(scFv)-IgG1(N297A) (antibody)", "light": "MNFGFSLIFLVLVLKGVQCEVKLVPRQLDYKDDDDKEFQVQLLQSGPELVKPGASVKLSCKASGYSFTSYDINWVKQRPGQGLEWVGWIYPRDGDTKYNEKFKGKAILTVDTSSNTAYMNLHSLTSEDSAVYFCARLTGPYWYFDVWGTGTTVTVSSRSSTKGPKLEEGEFSEAQLDIVMTQSHKFMSTSVGDRVSITCKASQDVDTAVAWYQQKPGQSPKLLIYWASTRHTGVPDRFTGSGSGTDYTLTISSVQAEDLARYYCQQYYSVPPTFGGGTKLEIKGSEIKRTVAAPSVFIFPPSDEQLKSGTASVVCLLNNFYPREAKVQWKVDNALQSGNSQESVTEQDSKDSTYSLSSTLTLSKADYEKHKVYACEVTHQGLSSPVTKSFNRGEC", "heavy": "not shown"}, "B5": {"name": "C4(scFv)-IgG1(N297A)-HC:TNC (antibody)", "light": "MNFGFSLIFLVLVLKGVQCEVKLVPRQLDYKDDDDKEFQVQLLQSGPELVKPGASVKLSCKASGYSFTSYDINWVKQRPGQGLEWVGWIYPRDGDTKYNEKFKGKAILTVDTSSNTAYMNLHSLTSEDSAVYFCARLTGPYWYFDVWGTGTTVTVSSRSSTKGPKLEEGEFSEAQLDIVMTQSHKFMSTSVGDRVSITCKASQDVDTAVAWYQQKPGQSPKLLIYWASTRHTGVPDRFTGSGSGTDYTLTISSVQAEDLARYYCQQYYSVPPTFGGGTKLEIKGSEIKRTVAAPSVFIFPPSDEQLKSGTASVVCLLNNFYPREAKVQWKVDNALQSGNSQESVTEQDSKDSTYSLSSTLTLSKADYEKHKVYACEVTHQGLSSPVTKSFNRGEC", "heavy": "not shown"}, "B6": {"name": "C4-Fab2 (antibody)", "light": "MNFGFSLIFLVLVLKGVQCEVKLVPRQLDYKDDDDKELDIVMTQSHKFMSTSVGDRVSITCKASQDVDTAVAWYQQKPGQSPKLLIYWASTRHTGVPDRFTGSGSGTDYTLTISSVQAEDLARYYCQQYYSVPPTFGGGTKLGSEIKRTVAAPSVFIFPPSDEQLKSGTASVVCLLNNFYPREAKVQWKVDNALQSGNSQESVTEQDSKDSTYSLSSTLTLSKADYEKHKVYACEVTHQGLSSPVTKSFNRGEC", "heavy": "MNFGFSLIFLVLVLKGVQCEVKLVPRQLQVQLLQSGPELVKPGASVKLSCKASGYSFTSYDINWVKQRPGQGLEWVGWIYPRDGDTKYNEKFKGKAILTVDTSSNTAYMNLHSLTSEDSAVYFCARLTGPYWYFDVWGTGTTVTVSSGSSSASTKGPSVFPLAPSSKSTSGGTAALGCLVKDYFPEPVTVSWNSGALTSGVHTFPAVLQSSGLYSLSSVVTVPSSSLGTQTYICNVNHKPSNTKVDKKVEPKSCDKTHTCPPCPA"}, "B7": {"name": "C4-Fab2-LC:scFvC4 (antibody)", "light": "MNFGFSLIFLVLVLKGVQCEVKLVPRQLDYKDDDDKELDIVMTQSHKFMSTSVGDRVSITCKASQDVDTAVAWYQQKPGQSPKLLIYWASTRHTGVPDRFTGSGSGTDYTLTISSVQAEDLARYYCQQYYSVPPTFGGGTKLGSEIKRTVAAPSVFIFPPSDEQLKSGTASVVCLLNNFYPREAKVQWKVDNALQSGNSQESVTEQDSKDSTYSLSSTLTLSKADYEKHKVYACEVTHQGLSSPVTKSFNRGECLEQVQLLQSGPELVKPGASVKLSCKASGYSFTSYDINWVKQRPGQGLEWVGWIYPRDGDTKYNEKFKGKAILTVDTSSNTAYMNLHSLTSEDSAVYFCARLTGPYWYFDVWGTGTTVTVSSRSSTKGPKLEEGEFSEAQLDIVMTQSHKFMSTSVGDRVSITCKASQDVDTAVAWYQQKPGQSPKLLIYWASTRHTGVPDRFTGSGSGTDYTLTISSVQAEDLARYYCQQYYSVPPTFGGGTKLEIK", "heavy": "MNFGFSLIFLVLVLKGVQCEVKLVPRQLQVQLLQSGPELVKPGASVKLSCKASGYSFTSYDINWVKQRPGQGLEWVGWIYPRDGDTKYNEKFKGKAILTVDTSSNTAYMNLHSLTSEDSAVYFCARLTGPYWYFDVWGTGTTVTVSSGSSSASTKGPSVFPLAPSSKSTSGGTAALGCLVKDYFPEPVTVSWNSGALTSGVHTFPAVLQSSGLYSLSSVVTVPSSSLGTQTYICNVNHKPSNTKVDKKVEPKSCDKTHTCPPCPA"}, "B8": {"name": "C4-IgG1(N297A) (antibody)", "light": "MNFGFSLIFLVLVLKGVQCEVKLVPRQLDYKDDDDKELDIVMTQSHKFMSTSVGDRVSITCKASQDVDTAVAWYQQKPGQSPKLLIYWASTRHTGVPDRFTGSGSGTDYTLTISSVQAEDLARYYCQQYYSVPPTFGGGTKLGSEIKRTVAAPSVFIFPPSDEQLKSGTASVVCLLNNFYPREAKVQWKVDNALQSGNSQESVTEQDSKDSTYSLSSTLTLSKADYEKHKVYACEVTHQGLSSPVTKSFNRGEC", "heavy": "not shown"}}}
{"target": "T1, Human TNFR2 (human, UniProt P20333 23-461)", "T1 sequence": "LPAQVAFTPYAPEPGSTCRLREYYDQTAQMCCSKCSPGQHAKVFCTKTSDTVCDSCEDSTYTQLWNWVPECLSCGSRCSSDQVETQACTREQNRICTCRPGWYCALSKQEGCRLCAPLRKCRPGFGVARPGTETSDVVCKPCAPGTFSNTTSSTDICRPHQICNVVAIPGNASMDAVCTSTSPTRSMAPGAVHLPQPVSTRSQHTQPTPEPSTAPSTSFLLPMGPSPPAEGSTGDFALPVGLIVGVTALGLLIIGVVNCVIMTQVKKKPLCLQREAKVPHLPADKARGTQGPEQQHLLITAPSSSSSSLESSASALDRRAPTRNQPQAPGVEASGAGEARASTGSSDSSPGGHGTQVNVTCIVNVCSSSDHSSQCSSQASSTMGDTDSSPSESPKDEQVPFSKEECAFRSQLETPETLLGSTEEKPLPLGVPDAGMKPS", "experiment": "cell-based or functional assay", "units": {"Activity I (IL8)": "ng/mL", "Activity II (tox)": "ng/mL"}}
{"binder": "B1", "Activity I (IL8)": 0, "Activity II (tox)": 0}
{"binder": "B2", "Activity I (IL8)": 100}
{"binder": "B3", "Activity I (IL8)": 10, "Activity II (tox)": 20}
{"binder": "B4", "Activity II (tox)": 20}
{"binder": "B5", "Activity II (tox)": 10}
{"binder": "B6", "Activity I (IL8)": 0, "Activity II (tox)": 0}
{"binder": "B7", "Activity I (IL8)": 50}
{"binder": "B8", "Activity I (IL8)": 0, "Activity II (tox)": 0}
